Measurements: the domain aggregation screens of Martell et al. (2025)

Assay: soluble fraction after stress (log2 fold change); higher = more stays soluble; pooled small domains, quantitative proteomics
Details: stress: 50 degC
How it was run: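 Custom libraries of small protein domains were pooled and measured in a high-throughput format, with quantitative proteomics as the read-out. Each library was stressed at 50°C. The value is the log2 fold change in the amount of each protein that stays soluble after stress, used as a measure of aggregation propensity; higher values mean more of the protein stays soluble.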

Sequence	soluble fraction (log2)
HMAVFRVGDKVKSMEGMIGEVRGINGRLIQVATPYGLRDYYPHQITKVENPLAAAPAPLNEEA	0.269
HMSGILINGELYKPGEQMSLKQRLSIQARIQMQGEDTVKPEMLKDFYNSGGPLSKEESSEYMKSQN	-0.153
HMLKETGVITASVLNVREDIGTSSNIVAQLKKGMEVNILESRAIAGSETWYRIDAGSIKGWIFGDYI	-3.62
HMNEIALETAIEDVESFIQMQNRNLAFSIDEDTDRAVVTVRDSDSGDVIRQIPSEEVLALAERIQDLQQD	0.136
HMRSFRIGGLVEQGSIARDGQSLTVRFAVTDLAHKIPVTYTGLLPDLFKEGKGVVAEGKLGPDGVFHASQV	-0.0153
HMPVQPMDPSIEHISALTGKQFQAFPGQDHRAHMTAHLNFMSTNIVRNNPAVMGAIQKNILEHISLMAQEQ	0.153
HMVQIIQLQGTDKRLYELVAPLVMNPEILKQNYNYPFRTSEDFVWFVAVDKKKVIGFIPVEEKKKEYVI	-0.0678
HMGLQDLFLNSLRKSKTPVTMFLVKGVKLQGVVTWFDNFSVLLRRDGMSQLVYKHSISTIMP	-0.0722
HMTFKDIMENYTISRIENTINSAVVFLDEINAYITIDKTQLPSNLRYDTDSKIMASQIPDDAKIKYFMIYW	-1.99
HMDTNVPVPNVNGMTLNQAKAALEAAGFHVAVNWLGEKSDNNSVISYEPNGSAAKGTTITITVIAQPEQDG	0.0386
HMLTAPMPGTIQQILVTKGQKVRSGQTLMILEAMKMEHKIKAPNSGEIISINYSLGNRVEMGANLIEI	-1.13
HMKMNFNEEEQKLLSEANVLVETNKTYTDDEVKGFSNKIVEHIMTFSKTDIPKVKSKFDPILFKI	-0.244
HMKGIVFTEFLDLVEERFGLEMVDAIISQSKLESKGVYTSIGTYSFSELLQLLQNLKIQTGISIDNLLLI	-0.88
HMDPTIAAIRKKLKNWTIVEVHMTREELEQAVIDGKVDVFLSSAGFYRRLVRFGARDLATAMSPAYPD	-0.542
HMKQISNTDELETMVKKIIDDNEEQVNKYRGGNEKLFGWFVGQAMKNTGGTANPKVVNEILSKLLK	0.0976
HMRKSAVSSTLTSIEGIGATRAKALLKHFKTVAAVSEADLKELEDAPGMTRPSALRVYEYFHGK	-0.165
HMKMDGESQRLLSLIKEQGGSLPIGDKSSPEAIYRLTQMSKKTFKMALGSLYKAKQVVLSPTEVRL	-0.69
HMGQISDDGALKKLASEVLAANPQALADWKAGKQQAVSFLVGQAMKASKGRGDAALLGELIRAALD	0.0134
HMSMVGSVNKQGRPFALLRVDNLLYQVKVGDYLGQNYGRITQIDETQIALREIVQDAAGEWIERPGVLQL	0.00588
HMTNIELYQRLLNLGFTPAQAKILLVQYDETRLTDNLNYVDFKKQQGNIENLPAYTTTIIKKDVRL	-0.389
HMEFEYFQLRDHLYNLIMHPDKEKLKKDPDYLKLMSMAFSLLEDQNVGKDILEIAIKSIENFK	-0.573
HMAPASADQLIDQLNEKVKAKDDKGVAALLTAAQTKMAELAQKDPKEAQAYVAKLQQWMQSNSENIKAALK	0.157
HMGSNRPLALGDVVRIEGSKTLGTILELNAKDAVVALGALKTTLPLSRIHHASSQESQRLKRQATQAPLR	0.123
HMNPTLPYGFAKRHGVILLEAGEVAVVGLREGADPAALIETRRALGRPLRVEPLDQATFDRRLSQVYA	-0.148
HMLSDLTPGDLVVHATHGIGRFLGIRKLELEGMTKDYITIQYRGNENLYVPVTQMDLVSRYI	-0.292

Sequence	soluble fraction (log2)
HMTMRFVVADGQNFGSIAQSKALEAVKKGNTEFNYKDVDYTVDIQSDDFYVVYQGRDIMGYASR	-2
HMTVLSKEEFVAIEQRLLQLLGTAPVDNKILLQQLSGIKKEKAWKVLSFLQAENKIGMDATGRVYL	-0.439
HMPHTDATDKQIIALILETLKDGQKHSVSEMTFPGIPREKTAQLLHQMIEEETVRIQNGVLFLPH	-0.109
HMTLGPKQMGEAIIKNLKEKTGKSLEEWSQRILIHELTDKKEIIDFLKNDNGLGHFQALKIFEHLNGK	-0.02
HMIEKVNDYVVRFANVNGTGSASANNLFALAIYRMGVPVTPKNIFPSNIQGLPTWFEVRVSGSGYLARRG	0.01
HMAPPPLAGAREALREQIRRGSLSARRGFDAYADALGLPAGTRGAHPIFAALQRLDYPQALRLLDQEPT	0.0894
HMADAGQTTAATELKQAPNAGSATISQLSAGQTLQIGTRQGAWYQVKTPQGEGWVRMLSVRLQ	0.0186
HMISVENLSNREFEIFQLIGNGFSTKEMAKKLNLSIYTVESHKKNIKEKLKLKNSSDLSKYAIQWVIMQN	-0.503
HMGTDIGADKAAQTALADAGLSSSQVTGLRTKQDWDDGQLRYEVEFRAGGVEYDYELAADGTILKADRDT	0.247
HMVDQAFQTQLKNIQARTGKNLDELYAFIRASGLVKHGEIRDLAKRELSLGHGDANTLAKFYLESLAAAA	0.269
HMRNEFEAHSDGTRIQLNDRSKATFSVYDVQGRLIHSFQDFSGSSFNIEPKNQLLIITRETAEGVSVKKLV	0.0942
HMTEEYAVLWRVARQTLKPEAFDVLWMKYREQLSIAEIAGIMNRSETSVKVMLHRARKNLGTALESS	-1.71
HMTGSAETRGITLTDEQVTVWAKDGSWANYVYRATDGNWYDGSGRLYYENGGGEWTQAATGEQGS	-0.0258
HMQDTRSHARKMLAAIEALLEGRSGSDIQAYTIHNRSITKMTVPELVKWRSYYQQQVRSEDAAASLA	-0.129
HMDSVEYRVITGDDVNFRKGPSTDYASLGKLNKGYKVEYISETNSWSKVKYNGQTGYVYSKYVAQT	0.0362
HMKTITVEDEQAGKRLDKALAELFPHYSRSALEKLIKEGQVLVNKSFVKSKYSLKLGDEISLQFEQL	0.173
HMDKSPMIGTAEYEGVLYWRQTKDNGATWEWITDKNGDKMPVSGPAPAVGIDKDGYWTVNGESTGVLAKD	0.168
HMQPADYSDLYAAAKSAGEADMRAAFALTDKQERTAAVNAARETIKAALSEEQLADANLGSALKKLEAGV	-0.337
HMYTTHTQSELNEAARFNGRATYQKGIYYNESKKEHFKVVNGKYQALPNVKQVNGDSWIDKTGITHKG	-0.171
HMTTARERVYKTLQQWIVNGTLLPEERLNDVELARYFSVSRTPVREALQMLAEQKLVKMVPSSGTFVA	-0.769
HMLRQVSDSNALETAVKKVLDANPEEVERYKSGNKKLISFFVGQTMKATKGAGNPKEINSILAKLL	0.0186
HMDLFLVYQFIRRLATPFTEWKAHELGIIDDKGVQLKKRRDFTTREEKDAYGIFDIMITKLKRLIEKV	-0.255
HMLSLTSRQQEIFDLIKGHIKKTGMPPTRSEIALHFGFRSANSAEEHLRALARKGFIELIPGTSRGIKLIE	-0.892
HMQKPIKPVKMHTVGPKENLSSIGRMYEVNGRVLANYNNIDYDKGLTIGQVLKIPPKGTTLEQVT	0.431
HMSEKRLHLVVDESDVNTRIDKYIADELDGYSRSFIQKLIKDNNVLVNGRAVKPNYNIGISDNIDIVLPKL	-0.00587

Sequence	soluble fraction (log2)
HMSGTFIGGELVKPGEPLTPMQRAAITMGLQMGNTYSPEIMEKYNNAGGSPSKEEFENYQKNKS	0.101
HMAPQVKIPNLVDVSQRQAEAILNSYGLKVGHLIYKPDLAKDAVLGFMFNGRSLKAGDELAKGSSIDLILG	-0.097
HMTFEPVYDENSRILILGTFPSVKSREQQFYYGHPQNRFWKLLAALTGWKVPKTISEKKELLLQNGIA	-0.136
HMSVISVETAKSKALAHAGLTASKVTFIENKLEWDDGRQVYDIEFYTSDYKEYDYTIDAVSGQVLEFDY	-1.13
HMQGAARGMLFAQAQRWMTKFRIDPQQADRITQAALDPAQTDAILREVRRGYGPSAERALRGIIRRARRA	-0.968
HMISINVIGEMISGSYGNTPFSRTYEKDIYEQMVKLSDDADQAQTVEEYNKILAEFSLLTTEDLK	-0.698
HMSDIDHIAGRRIRQARLNAGMTLETLASQAGISKALLSKIENSKVSSPLATFSKISKVLGVPLSDLLKE	-0.056
HMYIKYETVLQNITERIAALRKNGTLVLDGERTLAAEFDASRGTIRKAMRQLEENGTILREGYVTRILPE	-1.61
HMSALAEELIKKNQAMILTIKPRDTIWGIANRFQSPPSEKFINQIIELNQVDPYRLRIGQDLLIPLN	-0.584
HMPVSTLLGDNLRRLRTAKGYTQEAVADAARISVAAYRNYETGRAIPKVNTLLAIARALGVSLNDLVTE	-0.104
HMEYEETMSQIKHNLNLLPRQQRVIIEMAKFDELTPAEIAKQLGISVQTVRNQLSTGLKKLRQLL	-0.0252
HMQNVKIKAEVKGEVISPGVYELDEESRIQDLIDASGGFSDKAYYDNINLSMKLKDEMVLVVYDKDKI	-0.163
HMNPIDAHVGARVRLRRMLIGMSQEKLGELLGVTFQQIQKYEKGANRIGASRLYEVSRVLDVPVQYFFDDM	-3.47
HMETKQYIVEAQDEGTRLDVYLTKELGQSRSYVQSLVKEGHVQVNGKTGKSNLKLSSSSEILVTIPEVQ	-0.0648
HMIDNFFTIRFNYSKINEVIRLLKEFNGEIFNKNYDKNEYIIEFSIPKKDAALLISKLKNITGLTIEQ	-0.00473
HMETGKLIKELRLKKGMTQEELADKTEVSSRTIQRIENGEVDPRAYTLQMIARALEVDYSLFME	0.0531
HMAEQVLHQKLAARRKELNSLVAQVARVRGIPHSHVHSGLRREAGGPPLAQATTDQVEARISLARKWLRA	-0.728
HMEMTDKEEELMRIFWNHGPMFVREIVELYPEPRPHFNTLSTFVRNLEQKGFVSHEAVGGSFRYYAV	-1.26
HMKFNEKQNEVRIAIMNFIIDNKRPFHMKQDGYDALEGITLSGRHEFQDILDVLHSRDGFSADEEGNINF	-1.51
HMNVPATAEAYEALLADAESVGKSLWGHEAKRFAAEQALLSAGLREVIQVDPDKARELALRLRGLLDEYRG	0.13
HMKQVTVGGTINAGGARIYADSYGNGGGRQTFGSDPIYTVLQERNGYILTRWHKLSSGYTGWFKKSDVSA	-0.298
HMPPLVLRGVVMGADGARLAILAQGEAGAALGIGETWKEYTLRSVTDQSATLEHRSGTITLTR	-0.117
HMNADAIVGRTGVVTEAIAADGFGRVQIDGDSWKAKASGNNGIDVGAKVRVLRIDSIILTVEK	0.0422
HMVIVMRKDADAASIEKVVSEVKSRGFMPHVSEGESRTLIGAIGPAPTEELREHFAGLAGVETVVRITK	0.113
HMEKIELKTVIPENLKKKRLDFALSELFPEHSRSRIQSWIKEGSVMVNSKNYRQRDLVDAGDVVEINTEQK	0.236
